B1: GroES^7 (other)
chain: MNIRPLHDRVIVKRKEVETKSAGGIVLTGSAAAKSTRGEVLAVGNGRILENGEVKPLDVKVGDIVIFNDGYGVKSEKIDNEEVLIMSESDILAIVEAMNIRPLHDRVIVKRKEVETKSAGGIVLTGSAAAKSTRGEVLAVGNGRILENGEVKPLDVKVGDIVIFNDGYGVKSEKIDNEEVLIMSESDILAIVEAMNIRPLHDRVIVKRKEVETKSAGGIVLTGSAAAKSTRGEVLAVGNGRILENGEVKPLDVKVGDIVIFNDGYGVKSEKIDNEEVLIMSESDILAIVEAMNIRPLHDRVIVKRKEVETKSAGGIVLTGSAAAKSTRGEVLAVGNGRILENGEVKPLDVKVGDIVIFNDGYGVKSEKIDNEEVLIMSESDILAIVEAMNIRPLHDRVIVKRKEVETKSAGGIVLTGSAAAKSTRGEVLAVGNGRILENGEVKPLDVKVGDIVIFNDGYGVKSEKIDNEEVLIMSESDILAIVEAMNIRPLHDRVIVKRKEVETKSAGGIVLTGSAAAKSTRGEVLAVGNGRILENGEVKPLDVKVGDIVIFNDGYGVKSEKIDNEEVLIMSESDILAIVEAMNIRPLHDRVIVKRKEVETKSAGGIVLTGSAAAKSTRGEVLAVGNGRILENGEVKPLDVKVGDIVIFNDGYGVKSEKIDNEEVLIMSESDILAIVEA
modifications: DyLight 650 NHS ester on amines (for MST)
B2: GroES^7I25D1,2 (other)
chain: MNIRPLHDRVIVKRKEVETKSAGGDVLTGSAAAKSTRGEVLAVGNGRILENGEVKPLDVKVGDIVIFNDGYGVKSEKIDNEEVLIMSESDILAIVEAMNIRPLHDRVIVKRKEVETKSAGGDVLTGSAAAKSTRGEVLAVGNGRILENGEVKPLDVKVGDIVIFNDGYGVKSEKIDNEEVLIMSESDILAIVEAMNIRPLHDRVIVKRKEVETKSAGGIVLTGSAAAKSTRGEVLAVGNGRILENGEVKPLDVKVGDIVIFNDGYGVKSEKIDNEEVLIMSESDILAIVEAMNIRPLHDRVIVKRKEVETKSAGGIVLTGSAAAKSTRGEVLAVGNGRILENGEVKPLDVKVGDIVIFNDGYGVKSEKIDNEEVLIMSESDILAIVEAMNIRPLHDRVIVKRKEVETKSAGGIVLTGSAAAKSTRGEVLAVGNGRILENGEVKPLDVKVGDIVIFNDGYGVKSEKIDNEEVLIMSESDILAIVEAMNIRPLHDRVIVKRKEVETKSAGGIVLTGSAAAKSTRGEVLAVGNGRILENGEVKPLDVKVGDIVIFNDGYGVKSEKIDNEEVLIMSESDILAIVEAMNIRPLHDRVIVKRKEVETKSAGGIVLTGSAAAKSTRGEVLAVGNGRILENGEVKPLDVKVGDIVIFNDGYGVKSEKIDNEEVLIMSESDILAIVEA
modifications: DyLight 650 NHS ester on amines (for MST)
B3: GroES^7I25A1,4 (other)
chain: MNIRPLHDRVIVKRKEVETKSAGGAVLTGSAAAKSTRGEVLAVGNGRILENGEVKPLDVKVGDIVIFNDGYGVKSEKIDNEEVLIMSESDILAIVEAMNIRPLHDRVIVKRKEVETKSAGGIVLTGSAAAKSTRGEVLAVGNGRILENGEVKPLDVKVGDIVIFNDGYGVKSEKIDNEEVLIMSESDILAIVEAMNIRPLHDRVIVKRKEVETKSAGGIVLTGSAAAKSTRGEVLAVGNGRILENGEVKPLDVKVGDIVIFNDGYGVKSEKIDNEEVLIMSESDILAIVEAMNIRPLHDRVIVKRKEVETKSAGGAVLTGSAAAKSTRGEVLAVGNGRILENGEVKPLDVKVGDIVIFNDGYGVKSEKIDNEEVLIMSESDILAIVEAMNIRPLHDRVIVKRKEVETKSAGGIVLTGSAAAKSTRGEVLAVGNGRILENGEVKPLDVKVGDIVIFNDGYGVKSEKIDNEEVLIMSESDILAIVEAMNIRPLHDRVIVKRKEVETKSAGGIVLTGSAAAKSTRGEVLAVGNGRILENGEVKPLDVKVGDIVIFNDGYGVKSEKIDNEEVLIMSESDILAIVEAMNIRPLHDRVIVKRKEVETKSAGGIVLTGSAAAKSTRGEVLAVGNGRILENGEVKPLDVKVGDIVIFNDGYGVKSEKIDNEEVLIMSESDILAIVEA
modifications: DyLight 650 NHS ester on amines (for MST)

Assays:
[1] = biological target: GroEL (E. coli, UniProt P0A6F5 1-548); assay: MST
[2] = biological target: GroEL^SR (GroEL R452A/E461A/S463A/V464A) (E. coli, UniProt P0A6F5 1-548, R452A | E461A | S463A | V464A); assay: MST

Row | Binder | Kd [1] [nM] | Kd [2] [nM]
1 | B1 | 3.05 | 4.54
2 | B2 | 9.24 | 38.7
3 | B3 | 8.99 | 51.3

From article PMC5575113 (2017)
